How the values were obtained:
[1] = target: T1, CD20 on CD19 and CD20-expressing Raji B cells (human, UniProt P11836 1-297); assay: FACS, Raji cells
T1 construct: whole, on cells
T1 sequence (looked up): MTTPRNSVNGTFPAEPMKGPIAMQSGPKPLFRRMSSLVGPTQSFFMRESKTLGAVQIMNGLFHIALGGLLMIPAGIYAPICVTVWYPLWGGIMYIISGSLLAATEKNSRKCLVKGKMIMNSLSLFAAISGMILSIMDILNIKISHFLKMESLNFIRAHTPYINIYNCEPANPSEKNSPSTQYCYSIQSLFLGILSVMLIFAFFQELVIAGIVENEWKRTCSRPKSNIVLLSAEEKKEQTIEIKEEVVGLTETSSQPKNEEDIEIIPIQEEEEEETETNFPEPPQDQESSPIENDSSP

[2] = target: T2, CD3 on CD3-expressing T cells (Jurkat, HPB-ALL) (UniProt P07766 23-207); assay: FACS, Jurkat cells
T2 construct: whole, on cells; A multi-chain complex on cells; also called CD3 complex

[3] = target: T3, CD19 on CD19-expressing Raji B cells (human, UniProt P15391 20-556); assay: FACS, Raji cells
T3 construct: whole, on cells
T3 sequence (looked up): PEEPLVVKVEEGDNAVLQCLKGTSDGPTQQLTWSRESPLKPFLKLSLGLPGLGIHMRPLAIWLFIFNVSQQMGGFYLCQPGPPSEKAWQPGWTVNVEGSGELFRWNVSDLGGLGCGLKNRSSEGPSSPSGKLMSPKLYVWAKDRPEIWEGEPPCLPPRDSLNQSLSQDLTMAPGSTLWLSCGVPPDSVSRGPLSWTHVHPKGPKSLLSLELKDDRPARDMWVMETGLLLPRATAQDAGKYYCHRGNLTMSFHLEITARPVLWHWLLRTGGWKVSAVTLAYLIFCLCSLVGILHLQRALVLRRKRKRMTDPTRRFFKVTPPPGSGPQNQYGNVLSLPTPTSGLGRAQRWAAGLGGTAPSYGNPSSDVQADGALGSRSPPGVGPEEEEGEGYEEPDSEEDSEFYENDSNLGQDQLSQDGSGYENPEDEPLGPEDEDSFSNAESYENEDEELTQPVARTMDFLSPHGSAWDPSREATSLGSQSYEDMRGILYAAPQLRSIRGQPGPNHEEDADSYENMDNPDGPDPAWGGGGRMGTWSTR

B1: v1821, common light chain: aCD3-12F6_Fab chain A / aCD20-Rituximab_Fab chain B, Rituximab light chain (bispecific antibody, human IgG1, kappa)
chain 1: QVQLVQSGGGVVQPGRSLRLSCKASGYTFTSYTMHWVRQAPGKGLEWIGYINPSSGYTKYNQKFKDRFTISADKSKSTAFLQMDSLRPEDTGVYFCARWQDYDVYFDYWGQGTPVTVSSASTKGPSVFPLAPSSKSTSGGTAALGCLVKDYFPEPVTVSWNSGALTSGVHTFPAVLQSSGLYSLSSVVTVPSSSLGTQTYICNVNHKPSNTKVDKKVEPKSCDKTHTCPPCPAPELLGGPSVFLFPPKPKDTLMISRTPEVTCVVVDVSHEDPEVKFNWYVDGVEVHNAKTKPREEQYNSTYRVVSVLTVLHQDWLNGKEYKCKVSNKALPAPIEKTISKAKGQPREPQVYVYPPSRDELTKNQVSLTCLVKGFYPSDIAVEWESNGQPENNYKTTPPVLDSDGSFALVSKLTVDKSRWQQGNVFSCSVMHEALHNHYTQKSLSLSPGK
chain 2: not shown
chain 3: QIVLSQSPAILSASPGEKVTMTCRASSSVSYIHWFQQKPGSSPKPWIYATSNLASGVPVRFSGSGSGTSYSLTISRVEAEDAATYYCQQWTSNPPTFGGGTKLEIKRTVAAPSVFIFPPSDEQLKSGTASVVCLLNNFYPREAKVQWKVDNALQSGNSQESVTEQDSKDSTYSLSSTLTLSKADYEKHKVYACEVTHQGLSSPVTKSFNRGEC
notes: The single light chain is shared by both Fabs
[1]
  Bmax (OD450): 4.71 OD450
  Kd: 122 nM
[2]
  Bmax (OD450): 2.11 OD450
  Kd: 182 nM

B2: v1823, common light chain: aCD3-12F6_Fab chain A / aCD20-Tositumumab_Fab chain B, Tositumumab light chain (bispecific antibody, human IgG1, kappa)
chain 1: QVQLVQSGGGVVQPGRSLRLSCKASGYTFTSYTMHWVRQAPGKGLEWIGYINPSSGYTKYNQKFKDRFTISADKSKSTAFLQMDSLRPEDTGVYFCARWQDYDVYFDYWGQGTPVTVSSASTKGPSVFPLAPSSKSTSGGTAALGCLVKDYFPEPVTVSWNSGALTSGVHTFPAVLQSSGLYSLSSVVTVPSSSLGTQTYICNVNHKPSNTKVDKKVEPKSCDKTHTCPPCPAPELLGGPSVFLFPPKPKDTLMISRTPEVTCVVVDVSHEDPEVKFNWYVDGVEVHNAKTKPREEQYNSTYRVVSVLTVLHQDWLNGKEYKCKVSNKALPAPIEKTISKAKGQPREPQVYVYPPSRDELTKNQVSLTCLVKGFYPSDIAVEWESNGQPENNYKTTPPVLDSDGSFALVSKLTVDKSRWQQGNVFSCSVMHEALHNHYTQKSLSLSPGK
chain 2: not shown
chain 3: QIVLSQSPAILSASPGEKVTMTCRASSSVSYMHWYQQKPGSSPKPWIYAPSNLASGVPARFSGSGSGTSYSLTISRVEAEDAATYYCQQWSFNPPTFGAGTKLELKRTVAAPSVFIFPPSDEQLKSGTASVVCLLNNFYPREAKVQWKVDNALQSGNSQESVTEQDSKDSTYSLSSTLTLSKADYEKHKVYACEVTHQGLSSPVTKSFNRGEC
notes: as for B1
[2]
  Bmax (OD450): 0.88 OD450
  Kd: 68.8 nM

B3: v4542, cyno/human cross-reactive anti-CD3 BiTE 12C (VH-VL) scFv / anti-CD19 MOR208 (VH-VL) scFv heterodimeric knock-out Fc (bispecific antibody)
chain 1: not shown
chain 2: EVQLVESGGGLVKPGGSLKLSCAASGYTFTSYVMHWVRQAPGKGLEWIGYINPYNDGTKYNEKFQGRVTISSDKSISTAYMELSSLRSEDTAMYYCARGTYYYGTRVFDYWGQGTLVTVSSGGGGSGGGGSGGGGSDIVMTQSPATLSLSPGERATLSCRSSKSLQNVNGNTYLYWFQQKPGQSPQLLIYRMSNLNSGVPDRFSGSGSGTEFTLTISSLEPEDFAVYYCMQHLEYPITFGAGTKLEIKAAEPKSSDKTHTCPPCPAPEAAGGPSVFLFPPKPKDTLMISRTPEVTCVVVSVSHEDPEVKFNWYVDGVEVHNAKTKPREEQYNSTYRVVSVLTVLHQDWLNGKEYKCKVSNKALPAPIEKTISKAKGQPREPQVYVLPPSRDELTKNQVSLLCLVKGFYPSDIAVEWESNGQPENNYLTWPPVLDSDGSFFLYSKLTVDKSRWQQGNVFSCSVMHEALHNHYTQKSLSLSPGK
[3]
  Bmax (OD450): 2.96 OD450
  Kd: 0.7 nM

B4: v5852, hybrid: aCD3-Teplizumab-hOKT3_Fab chain A and light chain / aCD19-MOR208_scFvFc (VHVL) chain B (bispecific antibody, human IgG1, kappa, L234A L235A)
chain 1: QVQLVQSGGGVVQPGRSLRLSCKASGYTFTRYTMHWVRQAPGKGLEWIGYINPSRGYTNYNQKVKDRFTISRDNSKNTAFLQMDSLRPEDTGVYFCARYYDDHYCLDYWGQGTPVTVSSASTKGPSVFPLAPSSKSTSGGTAALGCLVKDYFPEPVTVSWNSGALTSGVHTFPAVLQSSGLYSLSSVVTVPSSSLGTQTYICNVNHKPSNTKVDKKVEPKSCDKTHTCPPCPAPELLGGPSVFLFPPKPKDTLMISRTPEVTCVVVDVSHEDPEVKFNWYVDGVEVHNAKTKPREEQYNSTYRVVSVLTVLHQDWLNGKEYKCKVSNKALPAPIEKTISKAKGQPREPQVYVYPPSRDELTKNQVSLTCLVKGFYPSDIAVEWESNGQPENNYKTTPPVLDSDGSFALVSKLTVDKSRWQQGNVFSCSVMHEALHNHYTQKSLSLSPGK
chain 2: EVQLVESGGGLVKPGGSLKLSCAASGYTFTSYVMHWVRQAPGKGLEWIGYINPYNDGTKYNEKFQGRVTISSDKSISTAYMELSSLRSEDTAMYYCARGTYYYGTRVFDYWGQGTLVTVSSGGGGSGGGGSGGGGSDIVMTQSPATLSLSPGERATLSCRSSKSLQNVNGNTYLYWFQQKPGQSPQLLIYRMSNLNSGVPDRFSGSGSGTEFTLTISSLEPEDFAVYYCMQHLEYPITFGAGTKLEIKAAEPKSSDKTHTCPPCPAPEAAGGPSVFLFPPKPKDTLMISRTPEVTCVVVSVSHEDPEVKFNWYVDGVEVHNAKTKPREEQYNSTYRVVSVLTVLHQDWLNGKEYKCKVSNKALPAPIEKTISKAKGQPREPQVYVLPPSRDELTKNQVSLLCLVKGFYPSDIAVEWESNGQPENNYLTWPPVLDSDGSFFLYSKLTVDKSRWQQGNVFSCSVMHEALHNHYTQKSLSLSPGK
chain 3: DIQMTQSPSSLSASVGDRVTITCSASSSVSYMNWYQQTPGKAPKRWIYDTSKLASGVPSRFSGSGSGTDYTFTISSLQPEDIATYYCQQWSSNPFTFGQGTKLQITRTVAAPSVFIFPPSDEQLKSGTASVVCLLNNFYPREAKVQWKVDNALQSGNSQESVTEQDSKDSTYSLSSTLTLSKADYEKHKVYACEVTHQGLSSPVTKSFNRGEC
[2]
  Bmax (OD450): 2.21 OD450
  Kd: 25.2 nM

B5: v5851, hybrid: aCD3-BiTEx_I2C_scFvFc (VHVL) chain A / aCD19-MOR208_Fab chain B and light chain (bispecific antibody)
chain 1: not shown
chain 2: not shown
chain 3: DIVMTQSPATLSLSPGERATLSCRSSKSLQNVNGNTYLYWFQQKPGQSPQLLIYRMSNLNSGVPDRFSGSGSGTEFTLTISSLEPEDFAVYYCMQHLEYPITFGAGTKLEIKRTVAAPSVFIFPPSDEQLKSGTASVVCLLNNFYPREAKVQWKVDNALQSGNSQESVTEQDSKDSTYSLSSTLTLSKADYEKHKVYACEVTHQGLSSPVTKSFNRGEC
[3]
  Bmax (OD450): 3.88 OD450
  Kd: 1.38 nM

B6: v5850, hybrid: aCD3-BiTEx_I2C_scFvFc (VHVL) chain A / aCD20-Ofatumumab_Fab chain B and light chain (bispecific antibody)
chain 1: not shown
chain 2: not shown
chain 3: not shown
[1]
  Bmax (OD450): 4.24 OD450
  Kd: 3.6 nM

B7: v1813, common light chain: aCD3-foralumab_Fab chain A / aCD20-Ofatumumab_Fab chain B, Ofatumumab light chain (bispecific antibody, human IgG1, kappa)
chain 1: not shown
chain 2: not shown
chain 3: not shown
notes: as for B1
[1]
  Bmax (OD450): 6.4 OD450
  Kd: 4.04 nM
[2]
  Bmax (OD450): 2.54 OD450
  Kd: 691 nM

B8: v6325, hybrid: aCD3-Teplizumab-hOKT3_Fab chain A and light chain / aCD20-Ofatumumab_scFvFc (VHVL) chain B (bispecific antibody, human IgG1, kappa)
chain 1: QVQLVQSGGGVVQPGRSLRLSCKASGYTFTRYTMHWVRQAPGKGLEWIGYINPSRGYTNYNQKVKDRFTISRDNSKNTAFLQMDSLRPEDTGVYFCARYYDDHYCLDYWGQGTPVTVSSASTKGPSVFPLAPSSKSTSGGTAALGCLVKDYFPEPVTVSWNSGALTSGVHTFPAVLQSSGLYSLSSVVTVPSSSLGTQTYICNVNHKPSNTKVDKKVEPKSCDKTHTCPPCPAPELLGGPSVFLFPPKPKDTLMISRTPEVTCVVVDVSHEDPEVKFNWYVDGVEVHNAKTKPREEQYNSTYRVVSVLTVLHQDWLNGKEYKCKVSNKALPAPIEKTISKAKGQPREPQVYVYPPSRDELTKNQVSLTCLVKGFYPSDIAVEWESNGQPENNYKTTPPVLDSDGSFALVSKLTVDKSRWQQGNVFSCSVMHEALHNHYTQKSLSLSPGK
chain 2: not shown
chain 3: DIQMTQSPSSLSASVGDRVTITCSASSSVSYMNWYQQTPGKAPKRWIYDTSKLASGVPSRFSGSGSGTDYTFTISSLQPEDIATYYCQQWSSNPFTFGQGTKLQITRTVAAPSVFIFPPSDEQLKSGTASVVCLLNNFYPREAKVQWKVDNALQSGNSQESVTEQDSKDSTYSLSSTLTLSKADYEKHKVYACEVTHQGLSSPVTKSFNRGEC
[1]
  Bmax (OD450): 6.44 OD450
  Kd: 11.9 nM
[2]
  Bmax (OD450): 2.51 OD450
  Kd: 1.58 nM
